The record followed here is patent publication EP4725966A1, “HUMAN EPIDERMAL GROWTH FACTOR 3 ANTIBODY, PREPARATION METHOD THEREFOR, AND USE THEREOF” (priority 2023, dated 2024).

For data set [1], the system named is A375 cells overexpressing human HER3. Description: ADC cytotoxicity, CellTiter-Glo. The data set is classed as cell-based. Particulars: Example 21, FIG. 13. For orientation: In ATP-based viability assays light output follows the ATP content of the culture.
For data set [2], the system named is HER3-overexpressing A375 cells. Description: Cell imaging of internalization. It counts as cell-based. The settings on record: 100 nM, FIG. 11. The protocol:
A cell imaging microplate detection system was used to monitor the internalization of hHE4-G1W, hHE4-G1W-DXd, patritumab, and patritumab-DXd after binding to HER3 on the surface of A375 tumor cells. hHE4-G1W, hHE4-G1W-DXd, patritumab, and patritumab-DXd (each 100 nM) were incubated with HER3-overexpressing A375 cells at 4°C for 30 minutes, respectively. Unbound antibodies were removed by washing, and PE-labeled goat anti-human Fc secondary antibody (Jackson) was added. The mixture was incubated at 4°C for 30 minutes, and then the unbound secondary antibody was removed by washing. When the antibodies were bound to the surface of A375 cells and had not yet undergone internalization, these samples were designated as the 0h samples. Fluorescence images were acquired using a Biotek Cytation 1 imaging reader. Cells were then incubated at 37°C for 3 hours and imaged again.

In data set [3] the test system is HER3-expressing HCC1569 cells. Kind of data set: ADC cytotoxicity. It counts as cell-based. Particulars: FIG. 13. The protocol: (§1) A375 and OVCAR3 cells were seeded in 96-well plates at 5,000 cells per well, and gradient-diluted ADCs (cHE4-G1W-DXd, cHE5-G1W-DXd, cHE7-G1W-DXd, patritumab-DXd, and IgG-DXd) were added. After incubation at 37°C for 5 days, cell viability was measured using CellTiter-Glo (Promega) to evaluate cytotoxicity of the ADCs.
(§2) The cytotoxicity of antibody-drug conjugates based on hHE4-G1W against HER3-expressing HCC1569, A375, and JIMT-1 tumor cells was tested. Antibody-drug conjugates were prepared as described in Example 11. Hydrophobic interaction chromatography indicated the antibody-to-Dxd ratios for cHE4-G1W-DXd, hHE4-G1W-DXd, patritumab-DXd, and negative control IgG-DXd were 1:7, 1:8, 1:7.8, and 1:8, respectively.

For data set [4], the system named is human HER3-overexpressing JIMT-1 cells. Description: ADC cytotoxicity. The settings on record: FIG. 13. It counts as cell-based. Here is the method:
as §1, §2

The test system of a further data set is SW620 tumor. Description: Tumor inhibition in SW620 tumor-bearing mice. The settings on record: 3 mg/kg, single dose, FIG. 14. It counts as in vivo, Female SCID mice. The protocol: The anti-tumor efficacy of hHE4-G1W-DXd and cHE5-G1W-DXd was evaluated in SW620 tumor-bearing mice. Female SCID mice were subcutaneously injected with SW620 cells in the dorsal region to establish the xenograft model. After tumor establishment, mice were randomly divided into nine groups and treated with a single dose. Three groups served as negative controls: one group received PBS, and two groups received IgG-DXd at low dose (3 mg/kg) and high dose (6 mg/kg), respectively. Experimental groups were administered with hHE4-G1W-DXd, cHE5-G1W-DXd, or patritumab-DXd at 3 mg/kg or 6 mg/kg. The average Dxd-to-antibody ratio was 8. Mouse body weights and tumor volumes were measured.

For patritumab-DXd [reference compound], the “cytotoxicity against A375 cells” value in data set [1] was “significant cytotoxicity”. The “binding to HER3 on the surface of A375 cells” value in data set [2] (0 hour) is reported as “bound to HER3 expressed on the cell surface”. Further, the “internalization into A375 cells” value in data set [2] (after 3 hours at 37°C) is reported as “internalized into the A375 cells”. Besides, the “cytotoxicity against HCC1569 cells” value in data set [3] is given as “significant cytotoxicity”. Moreover, the “cytotoxicity against JIMT-1 cells” value in data set [4] is given as “significant cytotoxicity”. Besides, the tumor growth result with SW620 tumor is “significant tumor growth at day 14 postadministration”.
